From US20120100140A1
Residue numbers refer to the chain shown, from its start. Names may count otherwise. Values belong to the binder of their own block, whether it stands above or below them.

Assays:
[1] = molecular target: CD64 (FcγRI) (UniProt P12314); assay: solution affinity SPR: antibody titrated into CD64, inhibition of CD64 binding to immobilized IgG1 MAb; average of two titrations
[2] = molecular target: CD64 (FcγRI) (UniProt P12314); assay: solution affinity SPR: inhibition of CD64 binding to immobilized IgG1 MAb
[3] = molecular target: CD16 (FcγRIIIa V158) (UniProt P08637); assay: solution affinity SPR: antibody titrated into CD16, inhibition of CD16 binding to immobilized IgG1 MAb; average of two titrations
Chain of CD16 (FcγRIIIa V158) (P08637 17-208 F176V limits assumed): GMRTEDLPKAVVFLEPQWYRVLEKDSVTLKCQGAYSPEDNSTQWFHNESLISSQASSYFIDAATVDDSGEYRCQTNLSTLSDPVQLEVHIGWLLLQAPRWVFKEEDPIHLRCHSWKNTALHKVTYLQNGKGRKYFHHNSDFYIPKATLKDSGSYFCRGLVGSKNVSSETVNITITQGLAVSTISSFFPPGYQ

Chain of CD64 (FcγRI) (P12314 16-288 limits assumed): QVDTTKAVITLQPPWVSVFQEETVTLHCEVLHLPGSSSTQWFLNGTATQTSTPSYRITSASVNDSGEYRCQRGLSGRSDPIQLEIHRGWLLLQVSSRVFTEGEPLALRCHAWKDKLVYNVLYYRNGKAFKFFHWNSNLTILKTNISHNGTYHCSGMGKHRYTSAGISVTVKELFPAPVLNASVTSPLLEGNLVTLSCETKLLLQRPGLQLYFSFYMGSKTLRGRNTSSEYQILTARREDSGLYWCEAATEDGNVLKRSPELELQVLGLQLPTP

IC50 [1]: 434 µM
B1: YC403 (hu5c8 aglycosylated IgG4.P S228P, T299A, T307P, L309K, D399S) (antibody)
heavy: QVQLVQSGAEVVKPGASVKLSCKASGYIFTSYYMYWVKQAPGQGLEWIGEINPSNGDTNFNEKFKSKATLTVDKSASTAYMELSSLRSEDTAVYYCTRSDGRNDMDSWGQGTLVTVSSASTKGPSVFPLAPCSRSTSESTAALGCLVKDYFPEPVTVSWNSGALTSGVHTFPAVLQSSGLYSLSSVVTVPSSSLGTKTYTCNVDHKPSNTKVDKRVESKYGPPCPPCPAPEFLGGPSVFLFPPKPKDTLMISRTPEVTCVVVDVSQEDPEVQFNWYVDGVEVHNAKTKPREEQFNSAYRVVSVLPVKHQDWLNGKEYKCKVSNKGLPSSIEKTISKAKGQPREPQVYTLPPSQEEMTKNQVSLTCLVKGFYPSDIAVEWESNGQPENNYKTTPPVLSSDGSFFLYSRLTVDKSRWQEGNVFSCSVMHEALHNHYTQKSLSLSLG
light: DIVLTQSPATLSVSPGERATISCRASQRVSSSTYSYMHWYQQKPGQPPKLLIKYASNLESGVPARFSGSGSGTDFTLTISSVEPEDFATYYCQHSWEIPPTFGGGTKLEIKRTVAAPSVFIFPPSDEQLKSGTASVVCLLNNFYPREAKVQWKVDNALQSGNSQESVTEQDSKDSTYSLSSTLTLSKADYEKHKVYACEVTHQGLSSPVTKSFNRGEC
modifications: chain 1 pos 1: N-terminal Gln largely converted to pyroglutamate, written Q; Fc aglycosylated

IC50 [2]: 8 µM
IC50 [3]: 380 µM
IC50 [1]: 7.56 µM
B2: EC326 (hu5c8 IgG4.P S228P, T307P, L309K, D399S, glycosylated) (antibody)
heavy: B1 heavy with A297T
light: B1 light
modifications: heavy chain pos 1: Gln largely converted to pyroglutamate (Table 3.3), written Q; N-linked glycan (G0F, G1F, G2F, G0) at EU N297 = heavy chain pos 295

IC50 [1]: 377 µM
B3: YC401 (hu5c8 aglycosylated IgG4.P S228P, T299A, T307P, D399S) (antibody)
heavy: B1 heavy with K307L
light: B1 light
modifications: chain 1 pos 1: N-terminal Gln largely converted to pyroglutamate, written Q; Fc aglycosylated

IC50 [1]: 2600 µM
B4: EC331 (hu5c8 aglycosylated IgG4.P T299K, T307P with IgG1 CH3) (antibody)
heavy: B1 heavy with A297K, K307L, Q353R, E354D, M356L, S397D, R407K, E417Q, L443P
light: B1 light
modifications: chain 1 pos 1: N-terminal Gln largely converted to pyroglutamate, written Q; Fc aglycosylated
